Experiment: soluble on expression in E. coli; label from the status in PepcDB or PDB records

MTFRNCVAVDLGASSGRVMLARYERECRSLTLREIHRFNNGLHSQNGYVTWDVDSLESAIRLGLNKVCAAGIAIDSIGIDTWGVDFVLLDQQGQRVGLPVAYRDSRTNGLMAQAQQQLGKRDIYQRSGIQFLPFNTLYQLRALTEQQPELIPHIAHALLMPDYFSYRLTGKMNWEYTNATTTQLVNINSDDWDESLLAWSGANKAWFGRPTHPGNVIGHWICPQGNEIPVVAVASHDTASAVIASPLNGSRAAYLSSGTWSLMGFESQTPFTNDTALAANITNEGGAEGRYRVLKNIMGLWLLQRVLQERQINDLPALIAATQALPACRFIINPNDDRFINPDEMCSEIQAACREMAQPIPESDAELARCIFDSLALLYADVLHELAQLRGEDFSQLHIVGGGCQNTLLNQLCADACGIRVIAGPVEASTLGNIGIQLMTLDELNNVDDFRQVVSTTANLTTFTPNPDSEIAHYVALIHSTRQTKELCA
soluble on expression in E. coli: soluble

MERLFKHICLVARHSKPGITPALMQLANHLAAGGATVLIDKESVTPDEANGYPLIDRTDMGKLADLCIVLGGDGTMLSIARLLAPYRVPLVGINQGRLGFMTDIPLHEMLDSVDAILHGKFVPEDRILLQAAVVREDAEVASALAFNDVVFSRGAVGSMIEFEVFIDNQFVYSQRSDGLIVSTPTGSTAYSLASGGPILHPTLQAIALVPICPQSLSNRPIAVNDSCEVEFMLTRGLDARVHFDGQLHCDLMEMDRVLIRRYRNPLRILHPEGYNYYDMLRHKLHWGERLILEHHHHHH
soluble on expression in E. coli: soluble

GCPRILIRCKQDSDCLAGCVCGPNGFCGSPA
soluble on expression in E. coli: soluble

MEALGKTILASDDINSIKKNLAKHIVHLNEENEKYRNEIKLLKKNKDINNQILFTLNKTEISSDMIDSLFMQTKNVIIQVTNKKY
soluble on expression in E. coli: not soluble

MQKIALCITGASGVIYGIKLLQVLEELDFSVDLVISRNAKVVLKEEHSLTFEEVLKGLKNVRIHEENDFTSPLASGSRLVHYRGVYVVPCSTNTLSCIANGINKNLIHRVGEVALKERVPLVLLVREAPYNEIHLENMLKITRMGGVVVPASPAFYHKPQSIDDMINFVVGKLLDVLRIEHNLYKRWRG
soluble on expression in E. coli: soluble

MLNRYYRFAVEKDDPSEAPESGDKPDSQPQKKS
soluble on expression in E. coli: not soluble

MGHHHHHHSHMDQRQRRILGQPLSIPTSQPKQKRTSMISFFSKVSWKLRFQKREPLKNVFFILAERARDPSAKKRHMAMRNLGTMAYEAPDKVRKYKKIVLDLLVYGLYDPVNLEVIHESMKTLTVVLGKIQGKGLGSFFIDIALQTRTLLDDENDSLRYSAFVLFGQLAAFAGRKWKKFFTSQVKQTRDSLLIHLQDRNPQVAKACKTTFQACSPYLKLKEEYSFQSEEDQRNTKLYQQLSHYHPEILQFFYANKIL
soluble on expression in E. coli: not soluble

MAHHHHHHMYVVGPMVDQSELPFRMLCRRYGATLAYSPMLHARSFAQSAQYRARYFSTTPHRAEPAMTATVSGEGEAAEDAGRTSDGKETDHPLFVQFCGNDADTLLAAARHVEDDCEAVDVNLGCPQGIARRGHYGSFLMEDWDRVHNILHCLAVELRVPVTAKMRVFDDDALTLKYAEMLRDTGIAVLCVHGRTRHNKRGLADMEKIRRVREHLRGSIPVIGNGNVLTFEDVRRNMSVTMTDGYMCAEPLLWDPRLFAAPLHPVRNGRCFAECCEARLDAIRTAQEYLQLVQRYPVDLAFVKAHLFKMLFHSYEMHPVMHGWLTNFSCNGRGGNNNNNAGSDVNGEVEDGDIDDGRSPDGASESGSGNANKAESNVKQAAGNLDFFAFAMDALGEHLRQLYAAEVSCGVEGPQPKRAHEREKGVNDDTSSSAKRKVETSHDAFAEDDVFGIDFDLNKK
soluble on expression in E. coli: soluble

MSLGDSNSSTPLPDTSYACQANVMTQSNQLRTYQIMVESFVDGDTSIGHGTGYGTSHHNGDLQGVIDSLDYIQDLGMNAIWLTPVFESEAIAGQDHWADRLDATGYFATDYFKIDPKFGDLATAKTLVEEAHKRGLYVFFDGVFGHHKNGLIKPSPSGLLPSGSSNPVDYPASLDFYKEVATYWIKELKIDGWRLDQAYQVPTDAWTQLRKAVDEASQSVTYTNSKGDQVNPLGYMVAEIWKGESEIANEAYGSNSDPALCSAFDFPMRYRIVETLAVNESGVGGRGVDWLDNGYSTHNQYPTHAQPNLMIGNHDLVRFGDLLQRGNLADVNDAEYWLRHKAAFAFQAAYTGPITLYYGDEIGDQVDGFAAKEDNNTCAIQGLCDDHVARSSAKIEGVTATLDANQADLKAYVTSLMTMRDTHPALYQGSRTNLVASNGSYVDLKQSGSDKVLFALNTLESARTVILAQESVGTGELVDLLTNEKIAPSNGQYQLPMSPLQGRFFAVTEGHHHHHH
soluble on expression in E. coli: soluble

MGSDKIHHHHHHMRRKIPSSTTLMAFEVAARHGSFARAAEELSLTEGAISRQIGRLEAFLGVTLFERVGNRVRLLPNGERYAAQVRESLDRLDRDSQYLMGQPSDGASLDIATIPTFAMRWLIPRLSRFQQKHPNITVHLAERMDPFVLAGSGFDAAIHFEHPAWTGMRTHQLLHEVLVPVCHPELLTGRKRKTALDELPRLHRRQNPEAWLQYSQETGTPLTNPAIGARYDLHGMLIEAALAGLGVALVPRLYVETELALGNLVAPWPEGKTISKTFCLILPEPIGLSREPIQAFAQWLLDEAKKGNSG
soluble on expression in E. coli: not soluble

MIKQTIVALLLSVGASSVFAAGTVKVFSNGSSEAKTLTGAEHLIDLVGQPRLANSWWPGAVISEELATAAALRQQQALLTRLAEQGADSSADDAAAINALRQQIQALKVTGRQKINLDPDIVRVAERGNPPLQGNYTLWVGPPPSTVTLFGLISRPGKQPFTPGRDVASYLSDQSLLSGADRSYAWVVYPDGRTQKAPVAYWNKRHVEPMPGSIIYVGLADSVWSETPDALNADILQTLTQRIPQ
soluble on expression in E. coli: not soluble

MPILEKAPQKMPVKASSWEELDLPKLPVPPLQQTLATYLQCMQHLVPEEQFRKSQAIVKRFGAPGGLGETLQEKLLERQEKTANWVSEYWLNDMYLNNRLALPVNSSPAVIFARQHFQDTNDQLRFAACLISGVLSYKTLLDSHSLPTDWAKGQLSGQPLCMKQYYRLFSSYRLPGHTQDTLVAQKSSIMPEPEHVIVACCNQFFVLDVVINFRRLSEGDLFTQLRKIVKMASNEDERLPPIGLLTSDGRSEWAKARTVLLKDSTNRDSLDMIERCICLVCLDGPGTGELSDTHRALQLLHGGGCSLNGANRWYDKSLQFVVGRDGTCGVVCEHSPFDGIVLVQCTEHLLKHMMTSNKKLVRADSVSELPAPRRLRWKCSPETQGHLASSAEKLQRIVKNLDFIVYKFDNYGKTFIKKQKYSPDGFIQVALQLAYYRLYQRLVPTYESASIRRFQEGRVDNIRSATPEALAFVQAMTDHKAAMPASEKLQLLQTAMQAQTEYTVMAITGMAIDNHLLALRELARDLCKEPPEMFMDETYLMSNRFVLSTSQVPTTMEMFCCYGPVVPNGYGACYNPQPEAITFCISSFHSCKETSSVEFAEAVGASLVDMRDLCSSRQPADSKPPAPKEKARGPTKPSNLDSSH
soluble on expression in E. coli: soluble

MGSDKIHHHHHHMTSNGQQGKPNLPEKDNLPRELGTQRINSPIARMGMFGAKTTGDTSGYGRLRVYRHVPAAAQRPYSDPSDPRTAYFDEVADALERSLKEIGTPYDTAISRVVVDRGEITFHVQREHLLDVATRLRDDPALRFELCLGVTGVHYPEDEGNELHAVYALRSITHNYEIRLEVSCPDSDPHIPSIVSVYPTNDWHEREAWDFFGIIFDGHPALTRIHMPDDWHGHPQRKDYPLGGIPVEYRGAKVPPPDQRRSYA
soluble on expression in E. coli: not soluble

MMENYITSFQLRFCPAAYLHLEQLPSLWRSILPYLPQWRDSAHLNAALLDEFSLDTDYEEPHGLGALPLQPQSQLELLLCRLGLVLHGEAIRRCVLASPLQQLLTLVNQETLRQIIVQHELLIGPWPTHWQRPLPTEIESRTMIQSGLAFWLAAMEPQPQAWCKRLSLRLPLATPSEPWLVAESQRPLAQTLCHKLVKQVTPTCSHLFK
soluble on expression in E. coli: not soluble

MSLASLCDLVGLPRSSFYRQSVFKVLEDQECETELRHQMQLICLEMPGYSYRRITAELHRRGWPVNHKRVLRLMRQDNLLCLRRKAFVRTTDSEHGFRVYPNLATNLMPSGLNQLWISDITYIRLQEEFVYLAIILDRYSRRVIGWSLSRHIDMELSLSALRMALSNREVLPGLIHHSDRGVQYASKAYIELLEEHKIAISMSRRGNPYDNAFAESFMKTLKYEEVLLNEYGDYREAQGNIARFIEEVYNRKRLHSSIGYLPPVEFEARVEHEISPASHPTEGHHHHHH
soluble on expression in E. coli: soluble

MEKKRVVITGLGAVTPVGTDVETAWENIKKGVSGIGRLTRIDPELFPAKVAAEINDFEVEKYIDKKEARRMDRFTQYAVAAAKMAVADAKLEITEENGPRIGVWIGSGIGGMETYEEQFKIFTEKGPRRVSPFFVPMMIPDMAAGQVSIATGAKGINTCSVTACASGANSIGDAFKAIQRGDADAMITGGAEAPLTSMAFAGFSSAKALTFNEDPATACRPFDKNRSGFVMGEGSGILILEELEHALARGAHIYAEIAGYGATGDAFHITMPAPGGEGGVRAMRQALADAGLQPEDIDYINAHGTSTDANEKYETMAIKETFGEHAYKVAISSTKSMTGHLLGAAGAVEAIFSIKSITDGVIPPTINYETPDPECDLDYVPNNARHQEVNAVLSNSLGFGGHNAVLVFKSYK
soluble on expression in E. coli: not soluble

MNDTLPGRISRERRGHLLLLGLDRVAKRNAFDLPMLDDLVAALGEYEADDQLRCALLFAHGEHFTAGLDLANVGETFRQGWKLPEGAVDPWGTFGGRRPSKPLVVAVQGYCYTIGIELMLAADINLCASNARFAQLEVQRGILPFGGATLRMHQVAGWGNAMRWLLTGDEFDAHEAYRLGLVQEVTAPEDLLDHAIALAERVAAQAPLGVRATLGSARQALLEGEAVAAAALPEAARRLLDSEDAKEG
soluble on expression in E. coli: not soluble

MAKRPTETERCIESLIAIFQKHAGRDGNNTKISKTEFLIFMNTELAAFTQNQKDPGVLDRMMKKLDLDSDGQLDFQEFLNLIGGLAIACHDSFIKSTQK
soluble on expression in E. coli: soluble

NKDWNVYASANFNYNRQEITKLFFGLNKYMLPNTGTIWEIGYPNSFYMAEYAGIDKKTGKQLWYVPGQVDADGNKVTTSQYSADLETRIDKSVTPPITGGFSLGASWKGLSLDADFAYIVGKWMINNDRYFTENGGGLMQLNKDKMLLNAWTEDNKETDVPKLGQSPQFDTHLLENASFLRLKNLKLTYVLPNSLFAGQNVIGGARVYLMARNLLTVTKYKGFDPEAGGNVGKNQYPNSKQYVAGIQLSF
soluble on expression in E. coli: not soluble

MRGSPHHHHHHGSAKNVVLDHDGNLDDFVAMVLLASNTEKVRLIGALCTDADCFVENGFNVTGKIMCLMHNNMNLPLFPIGKSAATAVNPFPKEWRCLAKNMDDMPILNIPENVELWDKIKAENEKYEGQQLLADLVMNSEEKVTICVTGPLSNVAWCIDKYGEKFTSKVEECVIMGGAVDVRGNVFLPSTDGTAEWNIYWDPASAKTVFGCPGLRRIMFSLDSTNTVPVRSPYVQRFGEQTNFLLSILVGTMWAMCTHCELLRDGDGYYAADALTAAYVVDQKVANVDPVPIDVVVDKQPNEGATVRTDAENYPLTFVARNPEAEFFLDMLLRSARAC
soluble on expression in E. coli: soluble

MSTIIDVYAREVLDSRGNPTVEVEVYTESGAFGRAIVPSGASTGEHEAVELRDGDKSRYLGKGVMNAVNNVNEAIAPEIVGFDVTDQAGIDRAMIELDGTPNKGKLGANAILGVSMAVAHAAADFVGLPLYRYLGGFNAKQLPTPMMNIINGGSHADNNVDFQEFMILPVGAPTFKESIRMGAEVFHALKAVLHDKGLNTAVGDEGGFAPNLGSNREALEVIIEAIEKAGYKAGENVFLGMDVASSEFYNKETGKYDLAGEGRTGLTSAEMVDFYEELCKDFPIISIEDGLDENDWDGHKLLTERIGDKVQLVGDDLFVTNTQKLAEGIEKGISNSILIKVNQIGTLTETFEAIEMAKRAGYTAVVSHRSGETEDATIADIAVATNAGQIKTGSMSRTDRIAKYNQLLRIEDELGEIAVYDGIKSFYNIKR
soluble on expression in E. coli: soluble
